# According to the supplement of paper PMC12764529:
# ± gives the half width of the 95% confidence interval.
# What was measured:
# [1] = folding stability dG unfold from trypsin proteolysis; higher = more stable
# Summary of the method: (§1)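 Digests were run with trypsin and chymotrypsin at 11 concentrations in threefold dilutions, plus a no-protease condition, on designed mini-proteins in a PA-tagged cDNA display construct. The mini-proteins were under 80 residues, had no cysteine, and were kept only when AlphaFold2 dimer inter-PAE was above 15. After sequencing, Bayesian fitting of the counts gave K50, from which unfolding free energy was derived against a sequence-predicted unfolded-state K50 and a shared folded-state K50, per protease or combined.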
# [2] = folding stability dG unfold (combined trypsin and chymotrypsin); higher = more stable
# Summary of the method: as §1
# [3] = folding stability dG unfold from chymotrypsin proteolysis; higher = more stable
# Summary of the method: as §1
Sequence,folding stability dG unfold [1],folding stability dG unfold [2],folding stability dG unfold [3]
SAGGSAMRIKDVNPDNGYFRIEPPDNGKPIYELNVEAMKKAQENGDIPPWVRELLNHEPGYRIEPVSAGGSA [r15_359_TrROS],-0.979 ± 0.49 kcal/mol,-0.327 ± 0.15 kcal/mol,-0.291 ± 0.21 kcal/mol
SAGGSAMSEEALAEAERLVAERRAALEAAGVPVTVERVEVTVTVDTEVPTTNITVDLDVRLPDAPESAGGSA [r2_94_JUSTAS],-0.0861 ± 0.034 kcal/mol,0.999 ± 0.027 kcal/mol,1.38 ± 0.024 kcal/mol
SAGGSAMTLEFKILFPNKTKEEAIKAIEEIPEEIKKNIKKIEILKIDPVGDEVIATLKIEVDPEFLSAGGSA [r15_244_TrMRF],0.723 ± 0.18 kcal/mol,1.37 ± 0.29 kcal/mol,1.86 ± 0.24 kcal/mol
SAGGSAMTPEEVREKAEEIAETLAAEAREAGYEVEVKAKVEGLPEKYARVTVELNGARVEVLIPLDSAGGSA [r15_432_TrMRF],0.453 ± 0.059 kcal/mol,0.125 ± 0.09 kcal/mol,-0.311 ± 0.18 kcal/mol
SAGGSAMTPVTIELPFEVEADDPEEAIKKAKELAEKLGLKPVEIKEIEVEPGNPKKVTVLMKATILSAGGSA [r15_183_JUSTAS],1.74 ± 0.066 kcal/mol,1.6 ± 0.071 kcal/mol,1.36 ± 0.049 kcal/mol
SAGGSAMTVTTTTSVDPKTGIITTTVSVNGTPVFTGTSIVAPGGEVAETFGTYTYDPETGTVTVTGSAGGSA [r15_770_JUSTAS],1.7 ± 0.067 kcal/mol,1.43 ± 0.086 kcal/mol,1.17 ± 0.049 kcal/mol
SAGGSAMVVRIEVDGKTIEIPAGASLEELKALLAENPGARFRIEVVEPPPPELSEEERKALEEARKSAGGSA [r15_36_TrROS_Hall],1.35 ± 0.019 kcal/mol,1.37 ± 0.1 kcal/mol,1.32 ± 0.077 kcal/mol
SAGGSAMVVRITTKDGKKIEITVKSVEELLEALKELGVEEVKLEKLPDGKELKLTVTLKDGKIEILSAGGSA [r15_632_TrROS_Hall],3.14 ± 0.087 kcal/mol,2.92 ± 0.054 kcal/mol,2.8 ± 0.077 kcal/mol
SAGGSAMYEVRIKIKKDGKEVEIELSLEELEELLESPELREELEIVEIEVRPLPPEELSEEELKALSAGGSA [r15_460_TrROS_Hall],1.18 ± 0.028 kcal/mol,1.06 ± 0.058 kcal/mol,0.836 ± 0.045 kcal/mol
SAGGSANDKDGQKKKQIKPIKIELPIPPGMEIEEINPGNGMIMIRWPENGWTWMFSLDDGKIFVMDSAGGSA [r15_452_TrROS],1.54 ± 0.058 kcal/mol,1.86 ± 0.22 kcal/mol,2.13 ± 0.19 kcal/mol
SAGGSANEILEKLGYPEENIVERKKVFKLPNGTELYEYVIPKTENGVTATILVEKTPKGVKIKVLPSAGGSA [r15_813_JUSTAS],-0.642 ± 0.44 kcal/mol,0.318 ± 0.22 kcal/mol,0.414 ± 0.25 kcal/mol
SAGGSANLAETPPVTTTETIEIKVPDPGKPLPITEEDVKKKYEGKNTKVEISVEGDKVIITITTKESAGGSA [r15_377_JUSTAS],0.407 ± 0.054 kcal/mol,0.68 ± 0.24 kcal/mol,0.871 ± 0.094 kcal/mol
SAGGSANPKPKIEIDKIYRMPDGQVHIPIEMERYDDDGQKETYPMDVTFNVPEGKPLTPNAIKDLISAGGSA [r15_836_TrROS],-0.645 ± 0.064 kcal/mol,-0.693 ± 0.15 kcal/mol,-0.924 ± 0.24 kcal/mol
SAGGSANTTYIELPTNGMSDEEVKELAEELAKKLGVKLEIKPLPGEGYWVVTFTLPDSTSTIVIPGSAGGSA [r15_168_JUSTAS],2.55 ± 0.11 kcal/mol,2.41 ± 0.11 kcal/mol,2.37 ± 0.038 kcal/mol
SAGGSANWRPIEIELMIGIKSKEQAKEWAEEIADNFPGIKDVEVEEFPDPDGHVMVAVDVKFYVPESAGGSA [r15_726_TrROS],0.755 ± 0.057 kcal/mol,0.969 ± 0.075 kcal/mol,0.999 ± 0.031 kcal/mol
SAGGSANWVKVEVKIPGGLKIEVWVPPGMSKEENQEKAQEMADEMAQMLRQMRENRKEGKPPTIDFSAGGSA [r15_704_TrROS],0.819 ± 0.08 kcal/mol,1.66 ± 0.1 kcal/mol,2.02 ± 0.065 kcal/mol
SAGGSAPAEKVAQTLLDLGFTEVRVEEDPETDLVTVEVIDPDGTRLEIRVDPKDPRIVEIRPRSLKSAGGSA [r15_648_TrMRF],-0.351 ± 0.14 kcal/mol,-0.154 ± 0.16 kcal/mol,-0.0972 ± 0.15 kcal/mol
SAGGSAPETLTIKVKNADGSTQTITLPAGATATSIEFNEDTGELTIHLEETGETITLPADEITEITSAGGSA [r15_133_TrROS_Hall],1.39 ± 0.12 kcal/mol,1.4 ± 0.11 kcal/mol,1.33 ± 0.026 kcal/mol

Sequence,folding stability dG unfold [1],folding stability dG unfold [2],folding stability dG unfold [3]
SAGGSAPEVKIVDVEEVDGEVKIKVEAPPGARLLIFNRATGKWEEVEVKPGDTITLPPGALVLVEPSAGGSA [r15_418_TrROS_Hall],1.77 ± 0.025 kcal/mol,2.88 ± 0.1 kcal/mol,3.22 ± 0.035 kcal/mol
SAGGSAPFKAELVSYDPETGVATFKLTLPDGSEVTVVATLDPDGVPHVKAYFPDGSVYDIEEILASSAGGSA [r15_832_TrMRF],2.28 ± 0.076 kcal/mol,3.59 ± 0.1 kcal/mol,3.893 ± 0.022 kcal/mol
SAGGSAPFKIAEIESVEYDPNEGRPTIRITIEHDGRPVEIWVPPGGIQIFNMGDGEPIKEIPLDEISAGGSA [r15_85_TrROS],0.182 ± 0.25 kcal/mol,0.0268 ± 0.26 kcal/mol,0.434 ± 0.48 kcal/mol
SAGGSAPGVITFMLPLDDIPPDPDGKWTHNEIKDHIRPFIQEAFGKDDIEIDVSPHPNGWVRITIRSAGGSA [r15_562_TrROS],2.41 ± 0.074 kcal/mol,2.69 ± 0.079 kcal/mol,2.76 ± 0.056 kcal/mol
SAGGSAPGVTLVSSTSSTSTLPDGTTKSTTTTTYKSPTGTYTTTTTTTVDTSKGTTTPTTTVTPVSSAGGSA [r2_185_JUSTAS],0.645 ± 0.064 kcal/mol,0.692 ± 0.14 kcal/mol,0.61 ± 0.16 kcal/mol
SAGGSAPIKIKTADGKTITVNAKDLSLELLKKADKVIITKPDGKKIELPAGAKIKKGDTVTIKIVKSAGGSA [r15_733_TrROS_Hall],0.153 ± 0.11 kcal/mol,-0.336 ± 0.33 kcal/mol,-0.437 ± 0.21 kcal/mol
SAGGSAPKNVTIEFPIMAKVPDPKWAIDEARELARKQGFENTEIENIHVNPGDPNYVMIDVKMTIPSAGGSA [r15_183_TrROS],0.249 ± 0.11 kcal/mol,0.326 ± 0.24 kcal/mol,0.278 ± 0.17 kcal/mol
SAGGSAPLVATEVSVEGNTIVVRSVTRLPNGTLSEDVVLIELPPLPLPPPAPWSTFPETGRLRLGPSAGGSA [r15_335_JUSTAS],0.159 ± 0.15 kcal/mol,0.481 ± 0.24 kcal/mol,0.76 ± 0.21 kcal/mol
SAGGSAPPAVEEIAKILEELFPGYRVVAEAEPVRDPETDEVLLRIRVAVFDENGKVILELEITLPLSAGGSA [r15_1048_TrMRF],3.89 ± 0.054 kcal/mol,4.19 ± 0.07 kcal/mol,4.3 ± 0.068 kcal/mol
SAGGSAPPNIVRPYVRPFLIYNPNGEPAALGELVIFEAPEGRLILLRLRSLENGEELELPFLYPGESAGGSA [r15_819_TrMRF],2.71 ± 0.071 kcal/mol,3.25 ± 0.037 kcal/mol,3.453 ± 0.02 kcal/mol
SAGGSAPPPPETVRIRVRITLPDGRTLEIEIEVSREEAERLAKELADRLRELGYEVKVEIVEVEEVSAGGSA [r2_274_TrROS_Hall],4.34 ± 0.31 kcal/mol,4.51 ± 0.32 kcal/mol,3.14 ± 0.28 kcal/mol
SAGGSAPPQTIPIIIKDPNGKVRIEPVQFDPGPGNFNWDIEHPNGEKHTITFTGPPDDLPPGDYIKSAGGSA [r15_596_TrROS],-0.575 ± 0.13 kcal/mol,0.784 ± 0.17 kcal/mol,1.37 ± 0.068 kcal/mol
SAGGSAPSSELLEEEFETEDKSNNTTIKIYKVPGTGDYLIETTTPSGKKTKLTLGPLSESEAKGLISAGGSA [r15_295_JUSTAS],0.0974 ± 0.023 kcal/mol,0.32 ± 0.059 kcal/mol,0.32 ± 0.097 kcal/mol
SAGGSAPVEVRVSVEVLPDGTLRITVEFTLPNGEKLSVEFTIPLAPVPVVDLTSPEALFPALSLLSSAGGSA [r15_1018_TrMRF],2.43 ± 0.07 kcal/mol,2.42 ± 0.17 kcal/mol,2.41 ± 0.069 kcal/mol
SAGGSAPVKLVVVYDEKTGEYRILAETPEGPVVFPFPRELFENIPLEDIAKLLNLEITEAVIVPNPSAGGSA [r15_801_TrMRF],2.63 ± 0.086 kcal/mol,3.38 ± 0.13 kcal/mol,3.67 ± 0.13 kcal/mol
SAGGSAPVVRVEIVVLGTGEVRTLTLEEAKRFLEAHPDKIDRVLVRVEVFEPDASTSDDVDPDGVPSAGGSA [r15_99_TrMRF],2.03 ± 0.034 kcal/mol,2.04 ± 0.07 kcal/mol,1.97 ± 0.021 kcal/mol
SAGGSARIEPVGDYLVIEIPFRYPDGMEWYIEIVINPEEGKIPVDQYPPGDGEPVGEKTLPADEVKSAGGSA [r15_671_TrROS],0.507 ± 0.14 kcal/mol,1.52 ± 0.23 kcal/mol,2.27 ± 0.11 kcal/mol
SAGGSARIKIDPPGKIKVYYNGQPFTIKPGVELDIQRTDDMIVLRIRMRDPDGKPVGEFPFMFRIKSAGGSA [r15_424_TrROS],2.13 ± 0.073 kcal/mol,2.41 ± 0.24 kcal/mol,2.59 ± 0.23 kcal/mol
